Measured values published in patent US20200299347A1 (Merck KGaA, published 2020).

B1: FGF18_Fab tanezumab (HL) (other)
heavy: EENVDFRIHVENQTRARDDVSRKQLRLYQLYSRTSGKHIQVLGRRISARGEDGDKYAQLLVETDTFGSQVRIKGKETEFYLCMNRKGKLVGKPDGTSKECVFIEKVLENNYTALMSAKYSGWYVGFTKKGRPRKGPKTRENQQDVHFMKRYPKGQPELQKPFKYTTVTKGGGGSGGGGSQVQLQESGPGLVKPSETLSLTCTVSGFSLIGYDLNWIRQPPGKGLEWIGIIWGDGTTDYNSAVKSRVTISKDTSKNQFSLKLSSVTAADTAVYYCARGGYWYATSYYFDYWGQGTLVTVSSASTKGPSVFPLAPSSKSTSGGTAALGCLVKDYFPEPVTVSWNSGALTSGVHTFPAVLQSSGLYSLSSVVTVPSSSLGTQTYICNVNHKPSNTKVDKKVEPKSC
light: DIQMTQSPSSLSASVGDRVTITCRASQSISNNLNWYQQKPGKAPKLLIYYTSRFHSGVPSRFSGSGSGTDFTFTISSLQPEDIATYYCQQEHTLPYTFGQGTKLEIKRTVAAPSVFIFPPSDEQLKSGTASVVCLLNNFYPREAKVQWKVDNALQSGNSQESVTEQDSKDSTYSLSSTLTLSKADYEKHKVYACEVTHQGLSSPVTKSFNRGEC
B2: FGF18_Fab fasinumab (LH) (other)
light: EENVDFRIHVENQTRARDDVSRKQLRLYQLYSRTSGKHIQVLGRRISARGEDGDKYAQLLVETDTFGSQVRIKGKETEFYLCMNRKGKLVGKPDGTSKECVFIEKVLENNYTALMSAKYSGWYVGFTKKGRPRKGPKTRENQQDVHFMKRYPKGQPELQKPFKYTTVTKGGGGSGGGGSDIQMTQSPSSLSASAGDRVTITCRASQAIRNDLGWYQQKPGKAPKRLIYAAFNLQSGVPSRFSGSGSGTEFTLTISSLQPEDLASYYCQQYNRYPWTFGQGTKVEIKRTVAAPSVFIFPPSDEQLKSGTASVVCLLNNFYPREAKVQWKVDNALQSGNSQESVTEQDSKDSTYSLSSTLTLSKADYEKHKVYACEVTHQGLSSPVTKSFNRGEC
heavy: QVQLVQSGAEVKKPGASVKVSCKVSGFTLTELSIHWVRQAPGKGLEWMGGFDPEDGETIYAQKFQGRVTMTEDTSTDTAYMELTSLRSEDTAVYYCSTIFGVVTNFDNWGQGTLVTVSSASTKGPSVFPLAPSSKSTSGGTAALGCLVKDYFPEPVTVSWNSGALTSGVHTFPAVLQSSGLYSLSSVVTVPSSSLGTQTYICNVNHKPSNTKVDKKVEPKSC
B3: FGF18 SEED tanezumab (MBE626) (other)
chain: EENVDFRIHVENQTRARDDVSRKQLRLYQLYSRTSGKHIQVLGRRISARGEDGDKYAQLLVETDTFGSQVRIKGKETEFYLCMNRKGKLVGKPDGTSKECVFIEKVLENNYTALMSAKYSGWYVGFTKKGRPRKGPKTRENQQDVHFMKRYPKGQPELQKPFKYTTVTKGGSGGSGSGSEPKSSDKTHTCPPCPAPEAAGGPSVFLFPPKPKDTLMISRTPEVTCVVVDVSHEDPEVKFNWYVDGVEVHNAKTKPREEQYNSTYRVVSVLTVLHQDWLNGKEYKCKVSNKALPAPIEKTISKAKGQPFRPEVHLLPPSREEMTKNQVSLTCLARGFYPKDIAVEWESNGQPENNYKTTPSRQEPSQGTTTFAVTSKLTVDKSRWQQGNVFSCSVMHEALHNHYTQKTISLSPGK
heavy: QVQLQESGPGLVKPSETLSLTCTVSGFSLIGYDLNWIRQPPGKGLEWIGIIWGDGTTDYNSAVKSRVTISKDTSKNQFSLKLSSVTAADTAVYYCARGGYWYATSYYFDYWGQGTLVTVSSASTKGPSVFPLAPSSKSTSGGTAALGCLVKDYFPEPVTVSWNSGALTSGVHTFPAVLQSSGLYSLSSVVTVPSSSLGTQTYICNVNHKPSNTKVDKKVEPKSCDKTHTCPPCPAPEAAGGPSVFLFPPKPKDTLMISRTPEVTCVVVDVSHEDPEVKFNWYVDGVEVHNAKTKPREEQYNSTYRVVSVLTVLHQDWLNGKEYKCKVSNKALPAPIEKTISKAKGQPREPQVYTLPPPSEELALNELVTLTCLVKGFYPSDIAVEWLQGSQELPREKYLTWAPVLDSDGSFFLYSILRVAAEDWKKGDTFSCSVMHEALHNRFTQKSLDRSPGK
light: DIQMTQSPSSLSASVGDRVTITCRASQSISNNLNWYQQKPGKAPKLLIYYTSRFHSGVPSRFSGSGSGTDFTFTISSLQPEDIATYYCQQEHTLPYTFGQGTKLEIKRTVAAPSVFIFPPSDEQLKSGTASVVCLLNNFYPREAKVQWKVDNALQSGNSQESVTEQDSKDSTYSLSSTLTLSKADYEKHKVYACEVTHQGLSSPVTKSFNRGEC
B4: FGF18_Fab fulranumab (LH) (other)
light: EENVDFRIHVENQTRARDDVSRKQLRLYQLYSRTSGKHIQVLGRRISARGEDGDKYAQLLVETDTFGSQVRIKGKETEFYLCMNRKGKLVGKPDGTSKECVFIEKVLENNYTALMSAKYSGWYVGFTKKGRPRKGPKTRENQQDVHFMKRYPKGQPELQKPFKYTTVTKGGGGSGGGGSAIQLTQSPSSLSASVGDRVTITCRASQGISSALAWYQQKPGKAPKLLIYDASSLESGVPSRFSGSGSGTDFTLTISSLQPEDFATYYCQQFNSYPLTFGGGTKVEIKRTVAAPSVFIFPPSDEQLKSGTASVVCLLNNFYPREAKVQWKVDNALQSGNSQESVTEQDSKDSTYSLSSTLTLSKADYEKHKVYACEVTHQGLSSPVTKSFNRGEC
heavy: EVQLVESGGGLVQPGGSLRLSCAASGFTLRSYSMNWVRQAPGKGLEWVSYISRSSHTIFYADSVKGRFTISRDNAKNSLYLQMDSLRDEDTAMYYCARVYSSGWHVSDYFDYWGQGILVTVSSASTKGPSVFPLAPSSKSTSGGTAALGCLVKDYFPEPVTVSWNSGALTSGVHTFPAVLQSSGLYSLSSVVTVPSSSLGTQTYICNVNHKPSNTKVDKKVEPKSC
B5: FGF18_Fab fasinumab (HL) (other)
heavy: EENVDFRIHVENQTRARDDVSRKQLRLYQLYSRTSGKHIQVLGRRISARGEDGDKYAQLLVETDTFGSQVRIKGKETEFYLCMNRKGKLVGKPDGTSKECVFIEKVLENNYTALMSAKYSGWYVGFTKKGRPRKGPKTRENQQDVHFMKRYPKGQPELQKPFKYTTVTKGGGGSGGGGSQVQLVQSGAEVKKPGASVKVSCKVSGFTLTELSIHWVRQAPGKGLEWMGGFDPEDGETIYAQKFQGRVTMTEDTSTDTAYMELTSLRSEDTAVYYCSTIFGVVTNFDNWGQGTLVTVSSASTKGPSVFPLAPSSKSTSGGTAALGCLVKDYFPEPVTVSWNSGALTSGVHTFPAVLQSSGLYSLSSVVTVPSSSLGTQTYICNVNHKPSNTKVDKKVEPKSC
light: DIQMTQSPSSLSASAGDRVTITCRASQAIRNDLGWYQQKPGKAPKRLIYAAFNLQSGVPSRFSGSGSGTEFTLTISSLQPEDLASYYCQQYNRYPWTFGQGTKVEIKRTVAAPSVFIFPPSDEQLKSGTASVVCLLNNFYPREAKVQWKVDNALQSGNSQESVTEQDSKDSTYSLSSTLTLSKADYEKHKVYACEVTHQGLSSPVTKSFNRGEC
B6: FGF18_Fab tanezumab (LH) (other)
light: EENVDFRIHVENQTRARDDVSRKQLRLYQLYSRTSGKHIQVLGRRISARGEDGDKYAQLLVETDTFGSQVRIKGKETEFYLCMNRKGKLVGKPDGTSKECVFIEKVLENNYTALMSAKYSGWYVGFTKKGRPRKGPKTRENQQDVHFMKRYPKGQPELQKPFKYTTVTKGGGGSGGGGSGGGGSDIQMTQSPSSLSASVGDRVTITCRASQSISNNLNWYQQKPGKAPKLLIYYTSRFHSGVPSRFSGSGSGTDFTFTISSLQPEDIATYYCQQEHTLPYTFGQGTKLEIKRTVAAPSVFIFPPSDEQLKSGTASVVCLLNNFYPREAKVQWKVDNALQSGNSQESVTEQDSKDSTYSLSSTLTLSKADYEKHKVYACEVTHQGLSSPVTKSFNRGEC
heavy: QVQLQESGPGLVKPSETLSLTCTVSGFSLIGYDLNWIRQPPGKGLEWIGIIWGDGTTDYNSAVKSRVTISKDTSKNQFSLKLSSVTAADTAVYYCARGGYWYATSYYFDYWGQGTLVTVSSASTKGPSVFPLAPSSKSTSGGTAALGCLVKDYFPEPVTVSWNSGALTSGVHTFPAVLQSSGLYSLSSVVTVPSSSLGTQTYICNVNHKPSNTKVDKKVEPKSC
B7: FGF18_Fab fulranumab (HL) (other)
heavy: EENVDFRIHVENQTRARDDVSRKQLRLYQLYSRTSGKHIQVLGRRISARGEDGDKYAQLLVETDTFGSQVRIKGKETEFYLCMNRKGKLVGKPDGTSKECVFIEKVLENNYTALMSAKYSGWYVGFTKKGRPRKGPKTRENQQDVHFMKRYPKGQPELQKPFKYTTVTKGGGGSGGGGSEVQLVESGGGLVQPGGSLRLSCAASGFTLRSYSMNWVRQAPGKGLEWVSYISRSSHTIFYADSVKGRFTISRDNAKNSLYLQMDSLRDEDTAMYYCARVYSSGWHVSDYFDYWGQGILVTVSSASTKGPSVFPLAPSSKSTSGGTAALGCLVKDYFPEPVTVSWNSGALTSGVHTFPAVLQSSGLYSLSSVVTVPSSSLGTQTYICNVNHKPSNTKVDKKVEPKSC
light: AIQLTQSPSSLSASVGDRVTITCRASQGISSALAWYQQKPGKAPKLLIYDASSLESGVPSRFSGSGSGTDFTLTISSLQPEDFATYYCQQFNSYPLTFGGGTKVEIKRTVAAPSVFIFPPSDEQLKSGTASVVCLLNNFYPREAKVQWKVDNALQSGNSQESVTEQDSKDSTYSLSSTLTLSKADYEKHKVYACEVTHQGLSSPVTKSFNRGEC

The binders below were run against NGF (assay: cell-based or functional assay).
NGF, sequence (P01138 122-241): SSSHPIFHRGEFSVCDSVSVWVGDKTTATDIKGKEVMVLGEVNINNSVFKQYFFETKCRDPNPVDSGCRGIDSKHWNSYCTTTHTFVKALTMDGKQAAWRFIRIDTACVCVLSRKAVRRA

Row | anti-NGF IC50 (nM), U2OS TrkA_p75 assay; construct from expiCHO-S [nM] | anti-NGF IC50 (nM), U2OS TrkA_p75 assay; construct from HEK293 [nM] | Binder
1 | 0.84 | – | B1
2 | 1.56 | 0.54 | B2
3 | 0.44 | – | B3
4 | 1.61 | – | B4
5 | 1.33 | – | B5
6 | 0.86 | 0.52 | B6
7 | 1.07 | – | B7

What follows are binders tested against FGFR3 (assay: cell-based or functional assay).

Row | FGF18 EC50 (nM), BaF3/FGFR3 assay; construct from expiCHO-S [nM] | FGF18 EC50 (nM), BaF3/FGFR3 assay; construct from HEK293 [nM] | Binder
8 | 0.05 | – | B1
9 | 0.1 | 0.27 | B2
10 | 0.05 | – | B3
11 | 0.07 | – | B4
12 | 0.06 | – | B5
13 | 0.08 | 0.21 | B6
14 | 0.06 | – | B7
